Key:
[1] = test system: macrophage and mast cell infiltration; experiment: Murine infarct model, immune cell infiltration into the wound; format: in vivo, mouse; conditions: 25 mg/kg 48 hr after surgery, four days post-MI
Protocol: FIG. 9. […] SPHINGOMAB reduced immune-cell wound infiltration in vivo. Mice were subjected to MI, treated with saline or 25 mg/kg SPHINGOMAB 48 hr. after surgery and then sacrificed on day 4. SPHINGOMAB reduced macrophage (A) and mast cell (B) infiltration into the wound. Data are represented as fold decrease of saline-treated values.
Based upon the similarities of immune and inflammatory responses in CNV and CVD, the efficacy of SPHINGOMAB to mitigate immune cell infiltration into a wound was evaluated in a murine infarct model as an indication of SPHINGOMAB's potential effects in mitigating these damages during AMD [Vine, et al. (2005), Opthalmology., vol 112: 2076-80; and Seddon and Chen (2004), Int Opthalmol Clin., vol 44: 17-39]. Four days post-MI, macrophage and mast cell infiltration was evaluated using MAC-1 and MCG35 antibodies, respectively, within the area at risk.

HUVECs = experiment: HUVEC tube formation on Matrigel; format: cell-based, human; conditions: co-incubated with S1P, GF-reduced Matrigel, 6 hr
Protocol: FIG. 5. FIG. 5 has two panels, A and B. In panel A, S1P is shown to promote neovascularization through induction of HUVECs tube formation and migration, which is reduced by SPHINGOMAB. […] The number of cells that migrated to the Matrigel membrane were counted in five independent fields.
Experiments were performed as described by Visentin et al. (Cancer Cell 2006 March; 9(3):225-38).

[2] = test system: neovascularization of VEGF- or bFGF-containing Matrigel plugs; experiment: In vivo Matrigel plug assay, bFGF- or VEGF-supplemented plugs, neovascularization; design: species or system mouse; conditions: 25 mg/kg i.p. every 48 hrs, 10 days
Protocol: Endogenous S1P from the blood and surrounding tissue could supply a wound with pro-angiogenic stimuli. The ability of SPHINGOMAB to reduce endogenous S1P in a wound was investigated. Optimally stimulated plugs (Matrigel supplemented with 0.5 μg/mL bFGF or […] VEGF) were implanted into mice. Mice received i.p. injections of 25 mg/kg SPHINGOMAB or saline every 48 hrs starting 1 day prior to Matrigel implantation. Each treatment group (Matrigel, Matrigel plus GF or Matrigel plus GF and administered SPHINGOMAB) consisted of a minimum of 6 mice. After 10 days, the mice were treated with heparin, injected with Isolectin B4-FITC, the plugs excised, embedded in OCT freezing medium and sectioned.

[3] = test system: murine cardiac fibroblasts; experiment: S1P-stimulated cardiac fibroblast migration, scratch assay; format: cell-based, mouse; conditions: 1 ug/mL antibody, 12-24 hr
Protocol: FIG. 7. […] See Example 7, below, for experimental details. […] In these experiments, fibroblasts were serum-starved and then treated with 0, 0.1, 0.5, or 1 μM S1P+/−1 μg/mL SPHINGOMAB for 12-24 hr. […] SPHINGOMAB neutralized each of these S1P effects. SPHINGOMAB reduced perivascular fibrosis in vivo in a murine model of a permanent myocardial infarction (E).
S1P makes profound contributions to wound healing by activating fibroblast migration, proliferation and collagen production; SPHINGOMAB neutralizes these effects. Several studies using multiple types of fibroblasts confirm S1P's ability to promote wound healing: 1) S1P increased Swiss-3T3 fibroblast proliferation as measured by ^3H-thymidine incorporation using standard methods (FIG. 7A); 2) S1P promoted the migration of cardiac fibroblasts in a standard scratch wound healing assay. […] In each of these assays, SPHINGOMAB neutralized S1P's. It is anticipated that ocular fibroblasts would respond similarly to S1P and SPHINGOMAB.

[4] = test system: CNV lesions after laser-induced rupture of Bruch's membrane; experiment: Murine model of laser-induced CNV and scar formation (Example 4); format: in vivo, mouse; conditions: 0.5 ug
Protocol: Female C57BL6/J mice were subjected to laser-induced rupture of Bruch's membrane and administered either 0.5 μg of Sphingomab or an isotype-matched non-specific (NS) antibody diluted in 2 μl of physiological saline. Mice were sacrificed 14 and 28 days after laser rupture.
To induce CNV lesions, the pupils were dilated with ophthalmic tropicamide (0.5%) and phenylephrine (2.5%). A coverslip was placed on the eye. An Oculight GL 532 nm (Iridex Corporation, Mountain View, Calif.) coupled to a slit lamp set to deliver a 100 msec pulse at 150 mW with a 50 μm spot size was used to rupture Bruch's membrane in three quadrants of the right eye located approximately 50 μm from the optic disc at relative 9, 12 and 3 o'clock positions. The left eye served as an uninjured control in all cases. Any lesion not associated with a vapor bubble or lesions that became confluent were excluded from analysis. […]
To assess collagen deposition, the sclera-choroid-RPE complex was stained with Masson's Trichrome. […] Approximately 30 sections per lesion were evaluated. Quantitation of the volume of collagen deposition was calculated in the same manner as described for CNV lesion volume.
Captured digital images were evaluated morphometrically using ImageJ software (Research Services Branch, National Institutes of Health, Bethesda, Md.).

B1: LT1002: murine anti-S1P monoclonal antibody, IgG1 kappa, hybridoma clone 306D326.26 (antibody, listed as Mus sp., V domains shown)
VH: QAHLQQSDAELVKPGASVKISCKVSGFIFIDHTIHWMKQRPEQGLEWIGCISPRHDITKYNEMFRGKATLTADKSSTTAYIQVNSLTFEDSAVYFCARGGFYGSTIWFDFWGQGTTLTVS
VL: ETTVTQSPASLSMAIGEKVTIRCITTTDIDDDMNWFQQKPGEPPNLLISEGNILRPGVPSRFSSSGYGTDFLFTIENMLSEDVADYYCLQSDNLPFTFGSGTKLEIK
density of inflammatory macrophages [1]: dramatically attenuated
density of mast cells [1]: dramatically attenuated
formation of capillary-like structures (HUVECs): failed to form capillary-like structures
decrease in neovascularization of VEGF-containing plugs vs saline-treated animals [2]: 5 fold
decrease in neovascularization of bFGF-containing plugs vs saline-treated animals [2]: 8.5 fold
S1P-promoted cardiac fibroblast migration [3]: neutralized
choroidal neovascularization ([4]; 14 and 28 days after laser-induced rupture of Bruch's membrane): dramatically attenuates
fibrosis associated with CNV lesion formation ([4]; 28 days after laser-induced rupture): significantly reduces

— US8444970B2, “Compositions and methods for treating ocular diseases and conditions” (Lpath, Inc., priority 2006, dated 2013)
